{"source": "paper PMC2690590", "about": "“Functional recombinant MHC class II molecules and high-throughput peptide-binding assays” (Immunome Research, 2009)", "test_in_all_cases": "AlphaScreen or HTRF", "key": {"[1]": {"target": "DR1GrpE: DR1 α chain 1–181 and β chain 1–190 fused C-terminally to GrpE, not biotinylated (human)"}, "[2]": {"target": "DR2a (DRA*0101/DRB5*0101) with non-biotinylated β chain, competitive LOCI assay (human)"}, "[3]": {"target": "DR2a (DRA*0101/DRB5*0101), biotinylated, direct LOCI assay at pH 6 (human)"}, "[4]": {"target": "DRB1*0813: DRA*0101/DRB1*0813 (human)"}}, "data": [{"substance": "Flu HA1194-202 peptide […]", "values": [{"measurement": "IC50", "setting": "[1]", "value": 42, "unit": "nM"}, {"measurement": "IC50", "setting": "[2]", "value": 529, "unit": "nM"}, {"measurement": "Kd", "setting": "[3]", "value": 167, "unit": "nM"}, {"measurement": "Kd", "setting": "[4]", "value": 276, "unit": "nM"}]}]}
